Reference: patent US11904004B2, “Anti-CD277 antibodies” (INSTITUT NATIONAL DE LA SANTE ET DE LA RECHERCHE MEDICALE …, priority 2010, dated 2024)

Experiments:
Assay type in all cases: cell-based, human
monocytes = assay: Costimulatory molecules expression on monocytes, flow cytometry
Method: Blood samples were obtained from 5 healthy volunteers enrolled among the staff members, after informed consent. Monocytes were separated from peripheral blood mononuclear cells, and isolated using the MACS CD14 isolation kit (Miltenyi Biotech, Auburn, Calif. USA). Monocytes were cultured for 5 days with 200 ng/ml of recombinant human GM-CSF and 10 ng/ml recombinant human IL-4 (Schering-Plough Research Institute). These cells were termed immature dendritic cells (iDC). To achieve the stimulation, monocytes and iDC were cultured with 10 ng/ml of LPS, ligand for TLR4, 30 μg/ml of 8848 (Sigma-Aldrich, Milano, Italy), ligand for TLR7/8 and with […] of poly (I:C) (Sigma-Aldrich), ligand for TLR3, and were harvested after 48 h. The cells were cultured in RPMI 1640 supplemented with 10% heat-inactivated FCS, 5 mM L-glutamine and 50 IU/ml penicillin-streptomycin (from here on referred to as complete medium).
Monocytes and iDCs before and after stimulation were analysed by imunofluorescence flow cytometry (FACScalibur Becton Dickinson, Milano, Italy) to verify their activation state. To this end, mAb specific for CD80, CD86, HLA-DR, CD1a, CD14 (BD Becton Dickinson), BT3 (clone 20.1, IgG1) and BT3 Fab2 were previously selected, purified and characterised (Bensussan and Olive, 2005, Compte et al., 2004) or irrelevant molecules (anti-CD19, Becton Dickinson, and anti-CD31, clone Moon-1, provided by F. Malavasi, both IgG1) were used. All the available anti-BT3 mAbs are unable to discriminate among the three members of this family (BT3.1, BT3.2, or BT3.3), probably due to their high sequence homology (Compte et al., 2004, Bensussan and Olive, 2005). As further control, to block the possible effect of trace amounts of endotoxin, polymyxin B (10 μg/ml, Sigma-Aldrich) was added to the anti-BT3 mAb 20.1 before adding the cells.

CD4+ T cells = assay: AKT and ERK phosphorylation, phosphoflow
Method: Human CD4^+ T cells were purified by negative selection from PBMCs using magnetic beads (MILTENYI BIOTEC®) according to the manufacturer's protocol. CD4 T cells were routinely more than 97% pure. Cells were incubated 24 hours in RPMI 1640 10% FBS at 37° C.
CD4^+ T cells were washed and stimulated at different times (2, 5, 10 and 30 minutes) with aAPC at a ratio of 1:3 (cells to beads) comprised of magnetic beads (DYNABEADS® M-450 Epoxy, Dynal Biotech) were coated with the following mAbs: anti-CD3 (OKT3), anti-human CD28 (CD28.2), and/or various concentrations of anti-human CD277 (CD277. 20.1 clone) or isotype control IgG1. These aAPCs were coated with suboptimal anti-CD3 Ab (5%), suboptimal levels of anti-CD28 Ab (10%), and either IgG1 Ab (CD3/CD28/IgG1), anti-CD277.20.1 Ab (CD3/CD28/CD277.20.1+IgG1), constituting the remaining 85% of protein added to the bead. The amount of protein was kept constant at […] by the addition of control IgG1. We examined the effect of mAbs CD277 clones engagement on AKT and ERK phosphorylation in CD4+T cells by PHOSPHOFLOW® proteomic method, which uses state-specific antibodies to detect target phosphoproteins by fluorescence-activated cell sorting (FACS). We assessed the activity of the signalling pathways after exposure of the cells to beads stimulations. We apply a sandwich-labeling method, which involves the application of a biotin-conjugated secondary antibody followed by detection with fluorescently conjugated streptavidin. […] Cells were permeabilized, fixed and analyzed after intracellular staining of the target phosphproteins (AKT and ERK) by the use of CYTOFIX/CYTOPERM® KIT and perm/wash buffer (BD Biosciences).

primary AML blasts = assay: Chromium release assay, lysis of primary AML blasts by Vγ9Vδ2 T cells
Method: Effector γδ T cells were established and maintained as previously described^28. PBMC from HV were stimulated with ZOL (1 μm) and rhlL-2 (200 IU/ml) at Day 0. From Day 5, rhIL-2 was renewed every two days and cells were kept at 1.5×10^6/m1 for 15 days. NK cells were isolated using EASYSEP® Human NK cell enrichment kit (StemCell Technologies). The purity of γδ T cells and NK cells was determined by flow cytometry and respectively greater than 80% and 98%. The Burkitt lymphoma cell line, DAUDI, the human AML cell line, U937, and the erythroleukemic cell line, K562, were obtained from the American Type Culture Collection and cultured (0.5×10^6/ml) in RPMI 1640 medium with 10% FCS. BTN3A Knock-down HEK293FT cells (sh #284; clone #30) were provided by E.Scotet (Inserm U892, Nantes), cultured and transfected with BTN3A1, BTN3A2, BTN3A3 mutated cDNA-containing plasmids, as described^23.
0.5×10^6 target cells were incubated with 50 pCi of ^51Cr (Perkin-Elmer) for AML blasts and 10 pCi for DAUDI and K562 cells for 90 minutes and mixed with effector cells in a Effector:Target (E:T) ratio of […]. After 4 hours of incubation at 37° C., 50p1 supernatant of each sample was transferred in LUMA® plates and radioactivity was determined by a gamma counter. The percentage of specific lysis was calculated using the formula [(experimental−spontaneous release/total−spontaneous release)×100] and expressed as the mean of triplicate.

[1] = antibody-coated beads, anti-CD3 plus anti-CD277
[2] = with anti-CD3 plus anti-CD28, 2, 5, 10 and 30 minutes, dose and time dependent

B1: mAb 20.1: murine anti-CD277 antibody obtainable from the hybridoma CNCM I-4402; agonist (antibody, V domains shown)
VH: QVQLQQSGAELVKPGASVKLSCKASGYTFTRYYLYWVKQRPGQGLEWIGEINPNNGGTKFNEKFKSKATLTVDKSSRTTYIQLSSLTSEDSAVYYCSREDDYDGTPDAMDYWGQGTAVTVSS
VL: DIQMNQSPSSLSASLGDTITITCHASQNINLWLSWYQQRPGNIPKLLIYRASNLHTGVPSRFSGSGSATGFTLTISSLQPEDIATYYCQQGHSYPYTFGGGTKLDIK
CD80 and HLA-DR molecules at the monocyte surface (monocytes; coated mAb): up-regulation
cell surface costimulatory molecule CD86 on monocytes (monocytes; coated mAb, 24 h stimulation): up-regulation
activating effect in the presence of polymyxin B (monocytes; polymyxin B 10 μg/ml): maintained
cellular activation with non-coated (soluble) mAb (monocytes; soluble mAb, no cross-linking, data not shown): no effect
phosphorylation of AKT (CD4+ T cells; [1]): induced the phosphorylation
phosphorylation of ERK (CD4+ T cells; [1]): induced the phosphorylation
phosphorylation of AKT induced by CD3+CD28 stimulation (CD4+ T cells; [2]): strongly up regulated
phosphorylation of ERK induced by CD3+CD28 stimulation (CD4+ T cells; [2]): strongly up regulated
Vγ9Vδ2 T cell lysis of ZOL-resistant or ZOL-poorly responsive AML blasts (primary AML blasts; E:T 30:1): significantly enhanced
enhancement of Vγ9Vδ2 T cells lysis of AML blasts compared with BrHpp (primary AML blasts; E:T 30:1, ZOL 45 μM O/N, 20.1 mAb 10 μg/ml, BrHpp 2 μM): significantly more efficient
specific lysis of AML blasts (primary AML blasts; Vγ9Vδ2 T cells pre-incubated with mAb (10 μg/ml, 90 minutes), washed): ~4.36±2.11%
AML blasts lysis by Vγ9Vδ2 T cells, addition to ZOL (primary AML blasts; anti-BTN3A 20.1 mAb added to ZOL): poor but significant
specific lysis of AML blasts (primary AML blasts; blasts pre-incubated with mAb (10 μg/ml, 90 minutes), washed): 22.92±7.64%
sensitization of blasts from UPN09 to Vγ9Vδ2 T cells lysis in vitro (primary AML blasts; data not shown): highly sensitized
specific lysis of AML blasts (primary AML blasts; simultaneous incubation of effector cells, target cells and mAb): 35.95±1.16%
